Results on 1 molecule are retold here after patent US20080045697A1 (Genentech, published 2008).

The target in this assay is T1, complement C3b (UniProt P01024 23-667; P01024 751-1663).
T1 construct: range 1-645;range 729-1641; The residue numbers seem to count on C3 without its signal peptide
The assay can be described thus: Fig. S13A-C and results not shown.

T1 sequence (P01024 23-667 limits assumed, chain 1 of 2): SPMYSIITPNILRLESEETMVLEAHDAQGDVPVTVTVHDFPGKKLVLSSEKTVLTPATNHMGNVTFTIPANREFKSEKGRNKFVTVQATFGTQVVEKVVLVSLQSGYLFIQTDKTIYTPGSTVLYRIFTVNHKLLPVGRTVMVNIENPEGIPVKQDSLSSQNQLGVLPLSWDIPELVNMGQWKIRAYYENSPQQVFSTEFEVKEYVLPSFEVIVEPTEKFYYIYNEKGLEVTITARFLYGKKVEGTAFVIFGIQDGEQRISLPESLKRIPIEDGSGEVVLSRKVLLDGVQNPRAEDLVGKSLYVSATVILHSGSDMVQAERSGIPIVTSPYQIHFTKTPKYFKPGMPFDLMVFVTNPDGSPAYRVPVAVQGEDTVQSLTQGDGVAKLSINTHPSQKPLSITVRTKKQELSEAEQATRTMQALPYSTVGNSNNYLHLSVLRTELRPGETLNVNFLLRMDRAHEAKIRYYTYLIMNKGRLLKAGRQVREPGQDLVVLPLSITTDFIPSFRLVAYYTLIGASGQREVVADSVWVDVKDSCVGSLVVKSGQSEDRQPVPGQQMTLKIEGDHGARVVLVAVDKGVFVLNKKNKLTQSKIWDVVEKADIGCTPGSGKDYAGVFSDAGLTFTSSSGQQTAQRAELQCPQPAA
T1 sequence (P01024 751-1663 limits assumed, chain 2 of 2): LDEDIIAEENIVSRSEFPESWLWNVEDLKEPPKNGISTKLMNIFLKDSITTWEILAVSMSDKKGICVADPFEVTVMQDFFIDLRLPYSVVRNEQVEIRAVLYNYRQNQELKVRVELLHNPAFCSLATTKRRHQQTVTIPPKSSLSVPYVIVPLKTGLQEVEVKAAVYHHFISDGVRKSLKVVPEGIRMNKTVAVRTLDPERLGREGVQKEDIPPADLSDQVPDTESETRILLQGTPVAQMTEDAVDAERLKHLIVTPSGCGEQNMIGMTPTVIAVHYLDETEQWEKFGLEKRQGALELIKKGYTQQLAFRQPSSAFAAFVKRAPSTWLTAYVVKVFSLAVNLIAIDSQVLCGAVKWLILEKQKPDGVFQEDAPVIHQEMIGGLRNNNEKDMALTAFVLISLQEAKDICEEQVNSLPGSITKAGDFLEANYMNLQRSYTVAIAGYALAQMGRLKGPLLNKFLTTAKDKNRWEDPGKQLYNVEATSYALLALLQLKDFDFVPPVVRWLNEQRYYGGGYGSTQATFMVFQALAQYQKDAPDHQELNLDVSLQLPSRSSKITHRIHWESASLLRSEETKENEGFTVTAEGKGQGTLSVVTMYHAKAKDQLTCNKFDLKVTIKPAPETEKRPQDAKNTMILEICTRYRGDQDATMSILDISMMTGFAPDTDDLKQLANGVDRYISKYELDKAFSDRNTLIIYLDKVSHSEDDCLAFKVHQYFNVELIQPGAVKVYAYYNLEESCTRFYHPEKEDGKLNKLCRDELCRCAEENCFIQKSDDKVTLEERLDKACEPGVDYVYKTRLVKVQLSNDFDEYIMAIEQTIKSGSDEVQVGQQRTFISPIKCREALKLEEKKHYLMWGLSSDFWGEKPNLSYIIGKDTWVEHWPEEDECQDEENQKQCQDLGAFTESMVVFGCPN

B1: complement factor H (other, UniProt P08603 19-1231, looked up)
chain: EDCNELPPRRNTEILTGSWSDQTYPEGTQAIYKCRPGYRSLGNVIMVCRKGEWVALNPLRKCQKRPCGHPGDTPFGTFTLTGGNVFEYGVKAVYTCNEGYQLLGEINYRECDTDGWTNDIPICEVVKCLPVTAPENGKIVSSAMEPDREYHFGQAVRFVCNSGYKIEGDEEMHCSDDGFWSKEKPKCVEISCKSPDVINGSPISQKIIYKENERFQYKCNMGYEYSERGDAVCTESGWRPLPSCEEKSCDNPYIPNGDYSPLRIKHRTGDEITYQCRNGFYPATRGNTAKCTSTGWIPAPRCTLKPCDYPDIKHGGLYHENMRRPYFPVAVGKYYSYYCDEHFETPSGSYWDHIHCTQDGWSPAVPCLRKCYFPYLENGYNQNYGRKFVQGKSIDVACHPGYALPKAQTTVTCMENGWSPTPRCIRVKTCSKSSIDIENGFISESQYTYALKEKAKYQCKLGYVTADGETSGSITCGKDGWSAQPTCIKSCDIPVFMNARTKNDFTWFKLNDTLDYECHDGYESNTGSTTGSIVCGYNGWSDLPICYERECELPKIDVHLVPDRKKDQYKVGEVLKFSCKPGFTIVGPNSVQCYHFGLSPDLPICKEQVQSCGPPPELLNGNVKEKTKEEYGHSEVVEYYCNPRFLMKGPNKIQCVDGEWTTLPVCIVEESTCGDIPELEHGWAQLSSPPYYYGDSVEFNCSESFTMIGHRSITCIHGVWTQLPQCVAIDKLKKCKSSNLIILEEHLKNKKEFDHNSNIRYRCRGKEGWIHTVCINGRWDPEVNCSMAQIQLCPPPPQIPNSHNMTTTLNYRDGEKVSVLCQENYLIQEGEEITCKDGRWQSIPLCVEKIPCSQPPQIEHGTINSSRSSQESYAHGTKLSYTCEGGFRISEENETTCYMGKWSSPPQCEGLPCKSPPEISHGVVAHMSDSYQYGEEVTYKCFEGFGIDGPAIAKCLGEKWSHPPSCIKTDCLSLPSFENAIPMGEKKDVYKAGEQVTYTCATYYKMDGASNVTCINSRWTGRPTCRDTSCVNPPTVQNAYIVSRQMSKYPSGERVRYQCRSPYEMFGDEEVMCLNGNWTEPPQCKDSTGKCGPPPPIDNGDITSFPLSVYAPASSVEYQCQNLYQLEGNKRITCRNGQWSEPPKCLHPCVISREIMENYNIALRWTAKQKLYSRTGESVEFVCKRGYRLSSRSHTLRTTCWDGKLEYPTCAKR
notes: also called fH
For B1, the binding result is given as “binds”.
